Measurements as given in PMC5811407 (Thrombosis research, 2017).
One block for each molecule: values may come before it.

What was measured:
[1] = molecular target: soluble form of human VLDL receptor (human) (UniProt P98155); assay: SPR
[2] = molecular target: human fibrin (human) (UniProt P02679); assay: ELISA
[3] = molecular target: recombinant fibrin (β15-66)2 fragment (human); assay: ELISA
[4] = molecular target: recombinant fibrinogen (Bβ1-66)2 fragment (human); assay: ELISA
[5] = molecular target: soluble form of human VLDL receptor (human, UniProt P98155 28-797); assay: ELISA

Kd [1]: 254 nM
Molecule: recombinant fibrinogen (Bβ1-66)2 fragment (domain or fragment)

Kd [2]: 7.2 nM
Kd [3]: 5.9 nM
Kd [4]: 7.7 nM
Molecule: soluble form of human VLDL receptor (from UniProt P98155 28-797)

binding result [5]: binds
B1: human receptor-associated protein (natural protein, UniProt P30533 35-357, looked up)
chain: YSREKNQPKPSPKRESGEEFRMEKLNQLWEKAQRLHLPPVRLAELHADLKIQERDELAWKKLKLDGLDEDGEKEARLIRNLNVILAKYGLDGKKDARQVTSNSLSGTQEDGLDDPRLEKLWHKAKTSGKFSGEELDKLWREFLHHKEKVHEYNVLLETLSRTEEIHENVISPSDLSDIKGSVLHSRHTELKEKLRSINQGLDRLRRVSHQGYSTEAEFEEPRVIDLWDLAQSANLTDKELEAFREELKHFEAKIEKHNHYQKQLEIAHEKLRHAESVGDGERVSRSREKHALLEGRTKELGYTVKKHLQDLSGRISRARHNEL
